According to patent CN107043423A (JIANGSU HENGRUI MEDICINE CO; SHANGHAI HENGRUI …, dated 2017):
Positions count from the first letter of the chain named.

B1: 人源化抗体H1512-8 (antibody, human IgG4 S228P, kappa, V domains shown)
VH: EVQLVESGGGLVQPGGSLRLSCAASGFTVSNYDMSWVRQAPGKGLEWVSMIETDGSIFHASWVNGRFTISRDNSKNTLYLQMNSLRAEDTAVYYCARGSNDYDAYGYPYFTLWGQGTLVTVSS
VL: ELVLTQSSSASASLGSSVKLTCTLSSAHETYTIDWYQQQPGKAPRYLMELKSDGSYNKGAGVPDRFSGSSSGADRYLTISNLQLEDEATYHCGADFSDGYVFGGGTKVEIKR
notes: Humanized antibody
B2: 人源化抗体H1512-12 (antibody, human IgG4 S228P, kappa, V domains shown)
VH: B1 VH with V48I, S49G, R71K, L78V, Y94F, A96V
VL: B1 VL with E1Q
notes: Humanized antibody; also called 抗凝血酶抗体H1512-12
B3: 人源化抗体H1512-1 (antibody, human IgG4 S228P, kappa, V domains shown)
VH: B1 VH
VL: B1 VL with E1Q, L2P, Y36H, E49K, T89D, H91Y
notes: Humanized antibody

How the values were obtained:
[1] = target: T1, 带His标签的人凝血酶 (human, UniProt P00734 328-622); test: ELISA, biotinylated His-tagged human thrombin on streptavidin plate
[2] = target: T2, 带His标签的人凝血酶原 (human, UniProt P00734 44-622); test: BIAcore SPR, antibody captured by anti-human capture antibody on CM5 chip, His-tagged prothrombin in flow
T2 construct: Zymogen precursor of thrombin, expressed in HEK293E; also called h-prothrombin-his; 人Pro凝血酶

[3] = target: T1, 带His标签的人凝血酶; test: BIAcore SPR, antibody captured by anti-human capture antibody on CM5 chip, His-tagged thrombin in flow

Row | Binder | EC50 [1] | Kd [2] | Kd [3]
1 | B1 | 19.3 nM |  | 
2 | B2 | 0.16 nM | 26.4 nM | 2.79 nM
3 | B3 | 43.4 nM |  | 
